Earlier results on two substances are cited in article PMC3898597.

Assay in all cases: SPR
For orientation: In SPR one partner is held on a chip, and binding of the other changes the refractive index at the surface.

Data set [1] deals with transducin heterotrimer (Gt) (Bos taurus) (UniProt P04695).
A further data set addresses Gαt (Bos taurus) (UniProt P04695).
The target of another data set is Gβ1γ1 (Bos taurus) (UniProt P62871).

rhodopsin, sequence (P02699 whole entry): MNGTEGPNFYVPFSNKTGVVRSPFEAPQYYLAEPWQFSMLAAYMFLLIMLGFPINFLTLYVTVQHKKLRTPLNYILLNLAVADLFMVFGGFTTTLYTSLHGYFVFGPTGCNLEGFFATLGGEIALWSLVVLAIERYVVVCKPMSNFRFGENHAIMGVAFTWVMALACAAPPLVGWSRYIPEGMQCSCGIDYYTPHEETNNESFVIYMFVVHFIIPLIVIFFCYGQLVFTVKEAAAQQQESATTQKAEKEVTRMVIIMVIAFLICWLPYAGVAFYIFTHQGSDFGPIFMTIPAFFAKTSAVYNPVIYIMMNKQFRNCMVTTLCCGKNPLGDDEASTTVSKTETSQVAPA
transducin heterotrimer (Gt) (Bos taurus), sequence (P04695 2-350, chain 1 of 3): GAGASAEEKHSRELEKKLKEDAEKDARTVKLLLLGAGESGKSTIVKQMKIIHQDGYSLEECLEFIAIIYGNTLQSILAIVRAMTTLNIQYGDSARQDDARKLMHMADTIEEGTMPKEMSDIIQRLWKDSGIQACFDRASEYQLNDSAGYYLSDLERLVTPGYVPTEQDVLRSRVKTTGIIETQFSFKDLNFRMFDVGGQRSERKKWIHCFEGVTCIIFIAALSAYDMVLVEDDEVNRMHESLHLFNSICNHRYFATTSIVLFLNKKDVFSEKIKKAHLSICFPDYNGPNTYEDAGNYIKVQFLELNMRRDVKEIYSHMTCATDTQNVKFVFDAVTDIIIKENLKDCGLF
transducin heterotrimer (Gt) (Bos taurus), sequence (P62873 2-340, chain 2 of 3, further chain): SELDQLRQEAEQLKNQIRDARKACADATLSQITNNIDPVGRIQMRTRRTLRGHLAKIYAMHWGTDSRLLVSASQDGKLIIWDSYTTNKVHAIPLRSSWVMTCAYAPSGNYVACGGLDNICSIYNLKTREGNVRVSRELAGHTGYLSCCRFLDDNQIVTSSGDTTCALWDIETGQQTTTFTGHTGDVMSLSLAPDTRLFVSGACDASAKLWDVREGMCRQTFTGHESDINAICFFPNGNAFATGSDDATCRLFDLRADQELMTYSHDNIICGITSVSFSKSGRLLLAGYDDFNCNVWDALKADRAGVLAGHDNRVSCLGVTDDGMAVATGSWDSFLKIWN
transducin heterotrimer (Gt) (Bos taurus), sequence (P02698 2-71, chain 3 of 3, further chain): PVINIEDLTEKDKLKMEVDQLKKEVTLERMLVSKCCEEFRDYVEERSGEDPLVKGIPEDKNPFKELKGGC
rhodopsin (recombinant), sequence (P02699 whole entry): as the sequence (P02699 whole entry) above
Gαt (Bos taurus), sequence (P04695 2-350): as the sequence (P04695 2-350, chain 1 of 3) above

rhodopsin (from UniProt P02699): the results for the Kd (in data set [1]; with Gαt (Bos taurus); with Gβ1γ1 (Bos taurus)) were 13.6 nM, 300 nM and 300 nM, respectively.
For “rhodopsin (recombinant) (from UniProt P02699)”, the Kd in data set [1] was 9.1 nM.

Usually Kd stands for a measure of binding affinity in units of concentration.
